Measured values as given in paper PMC4658703 (Science (New York, N.Y.), 2012).
Like-named read-outs stand apart in the source and are kept apart here.

What was measured:
[1] = target: T1, Human IGF2R domain 11 (wild type) (human, UniProt P11717 1508-1650); assay: SPR
[2] = target: T1, Human IGF2R domain 11 (wild type); assay: SPR; remark: listed apart in the source

T1 sequence (P11717 1508-1650): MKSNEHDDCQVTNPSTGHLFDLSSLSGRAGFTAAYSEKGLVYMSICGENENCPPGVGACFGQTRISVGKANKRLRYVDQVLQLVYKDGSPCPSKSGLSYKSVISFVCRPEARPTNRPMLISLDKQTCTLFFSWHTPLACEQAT

B1: Chicken IGF2 (ligand, UniProt P33717 24-91, looked up)
chain: AYGTAETLCGGELVDTLQFVCGDRGFYFSRPVGRNNRRINRGIVEECCFRSCDLALLETYCAKSVKSE
modifications: ends and bridges not checked; also: biotin, site not given here
What does the source list for B1?
Kd [1]: 46 nM; Kd [2]: 63 nM
